This series is described as follows: soluble on expression in E. coli; label from the status in PepcDB or PDB records.
For the sequence “MGSDKIHHHHHHMKNLPSLKNLYYLVHLHQEQNFNRAAKMCFVSQSTLSSGIQNLEEQLGYQLIERDHKSFMFTAIGEEVVERARNILTNVDDLVELVKNQGEPMTGEIRLGCIPTIAPFLLSRVVKLCQQDYPKLSLLLKEDTTERLLDALAKGELDLLILALPVDTSGFHSMKVGIDPFKMVMHKEVSQQFLQPIDYQKMPDESIFLLQAEHCITGHAITACQLGDSAKINPFAATSLHTLVQMVNSKLGTTFLPQMAIDTGILTDTDLVAMDPPGEAPYRDIGLVWRQTTSRISTFRTLGLAIQQKLLAQSLPS”, the “soluble on expression in E. coli” value is on record as “not soluble”.
Turning to “KMPLTIYSADGEVIGMYGEQRREFTKIGDFPEVLRNAVIAAEDKRFYRHWGVDVWGVARAAVGNVVSGSVQSGASTITQQVAKNFYLSSEKTFTRKFNEVLLAYKIEQSLSKDKILELYFNQIYLGQRAYGFASAAQIYFNKNVRDLTLAEAAMLAGLPKAPSAY”, the “soluble on expression in E. coli” value is recorded as “not soluble”.
For the sequence “MMKLKVYADRMSQPSRAVIIFCKVNGIQFDEVLISLAKRQQLSPEFKDINPLGKVPAIVDGRLKLFESHAILIYLSSAFPSVADHWYPNDLSKRAKIHSVLDWHHTNLRRGAAGYVLNSVLGPALGLPLNPKAAAEAEQLLTKSLSTLETFWLKGNAKFLLGSNQPSIADLSLVCELMQLQVLDDKDRLRLLSTHKKVEQWIENTKKATMPHFDETHEILFKVKEGFQKRREMGTLSKPGLQSKI”, the “soluble on expression in E. coli” value is “soluble”.
The entry for “HGSMTDTYLHETLVFDNKLSYIDNQRDTDGPAILLLPGWCHDHRVYKYLIQELDADFRVIVPNWRGHGLSPSEVPDFGYQEQVKDALEILDQLGVETFLPVSHSHGGWVLVELLEQAGPERAPRGIIMDWLMWAPKPDFAKSLTLLKDPERWREGTHGLFDVWLDGHDEKRVRHHLLEEMADYGYDCWGRSGRVIEDAYGRNGSPMQMMANLTKTRPIRHIFSQPTEPEYEKINSDFAEQHPWFSYAKLGGPTHFPAIDVPDRAAVHIREFATAIRQGQ” is “soluble”; for “MSLDIMITHKKIYSSLLNTKSRLNFKDTVQSGQSFRWNLNETLKSYYSSVIYNSIIFICEINSEMIEVLCTDQELSGKPINEFLKHLFSLDFQEETVFSSRFQQEFPEVWNLVQSYRSVRVMRQDPFEIMVTFMCAQGIGMHLIRRQVSMIAERYGQKIMLELPEGNLTFHSFPPPQALASADPNELAVCTNNNRIRAANIIAMARSFESGKLALACVDSGKCDLETLRETLCVHSGIGLKIADCIALFGLGRFDAFPIDTHVKQYLWEWFGIEEARHSLTEKNYRILQEKARAILGAEYAGYAGHILFHCWRKEVKKMKAEGHHHHHH” it is “soluble”; for “MSYKAYPFFRDILINECIYFASKNKKLVRLNYKSEAYVGVWTEESVAVSFLTSRDIPFDKVVKMDVDRFATYELDELFDEQDHIIMNQTMEEEGHLLNVVAVTQEVMTELDKIRIKEFVQDVAKYDEVYGLTKKGSKQFILISENDSDEKKPHIMPVWSIKNRALKVRDEDFEECDLITIEGSVFGEWLDELRDDHKAVAIDLKTGVVGTIVSAQKLSNELTF” it is “not soluble”.
Take “MELDLISYELDEKTKEGIEKVVEKFFTKAEPDLVLIFDKAGRILACKGMDISDTYSEFISSILSALFFASEELTSMLDKNDEMKDVFYETKNRVFLMARLEKDFLIGVISRKNLSLGSIRLFFNHLVSDLNAVLKNLKEVEKKSLKISKEELKKKLDQILGS”: the “soluble on expression in E. coli” value was “not soluble”.
As to “MDGNDLIRLEMKRLGPMAVEKGDLLLLSGDNNADASMWDPNSNGPKSYQSQVAGLRLAAGGVFHVLTLKSAGEATLSIHFVFPSRTDPGRQVQMWVRRVGRSFQGAGSGYVLMNMRHVVNVQGKTIHTQTGNTVCLDDITDDCYLDREGRFVFVKSPVGSPPSMIAVGYTNSDGTQDLAELILTESACPEMLHVFSTLEFPD”, the “soluble on expression in E. coli” value was “soluble”.
Turning to “MVAVPEGYESLLERPLYGHLATVRPDGTPQVNAMWFAWDGEVLRFTHTTKRQKYRNIKANPAVAMSVIDPDNPYRYLEVRGLVEDIVPDPTGAFYLKLNDRYDGPLTEPPADKADRVIIVVRPTAFSKQVA”, the “soluble on expression in E. coli” value was “soluble”.
The entry for “MPKVEIAPSEIKIPDNVLKAKLGFGGAEEIPEEFRKTVNRAYEELLDAAKPVVLWRDFEVDGSLSFDDMRLTGELATKHLSGSKIITVFLATLGKKVDEKIEEYFRKGEDLLAFFIDGIASEMVEYALRKVDAELRMKRSNLEGSFRISPGYGDLPLSLNKKIAEIFKEEVDVNVIEDSYVLVPRKTITAFVGWREKNEKQT” is “not soluble”; for “MTVGYGFSASGDYSQSKIRADHASVTEQSGIYAGEDGYQIKVRDNTDLKGGIITSSQSAEDKGKNLFQTATLTHSDIQNHSRYEGKSFGIGGSFDLNGGWDGTVTDKQGRPTDRISLAAGYGSDSDSQSSITKSGINTRNIHITDEAGQLARTGRTAKETEARIYTGIDTETADQHSGRLKNSFDKDAVAKEINLQREVTKEFGRNATQAVAAVADKLGNTQSYERYQEARTLLEAELQNTDSEAEKAAFRASLGQVNAYLAENQSRYDTWKEGGIGRSILHGAGRQSAMRRAGMSVRRQ” it is “not soluble”.
Turning to “MDLEAPPTLLQLAAQCTVRKEVLTISVLQNLPMKLFPPLFKEADILRKAKMIKLLVEYWPYPSLLVGLLIDKTNLETFQAILEGVGTWLKRKYRPRMGKLQVVDLRNGHHDFWDMLAGREGGDQLVETMPEKQEVEGHSRRQRLRVFSDLSFKSSRHEDKQQTHLLQWAKDREGFLHLCCEKLEIGALGVSKVKKVLKLLQPEFIKELELNTVGNLSKLTKLVPCISKMRNLQKLMLVRIFGRHTYTPLEERNVTKILSLFPKLSYLQHLTIDDVYFLRDHMNELFRYLEAPLLSLTITLCQISQSDLESFSQHWNYGQLKHLCLKGVSLSTLNVTPLKFFLESVADTLQTLELEDCRMKDSHLRILLPALTKCTRLTSINFYDNNISRDVLQDLLHRTANMSQLTMELYPAPVEVYNEWSYVQVERFSQLCAELMNTLITVRRPKSVCFGTYSCYDCDTHCIYGNQTTFCECLE”, the “soluble on expression in E. coli” value is listed as “not soluble”.
Turning to “MNLLEKTRKINAMLQKAAGRPVNFKEMAETLCEVIEANVFVVSRRGKLLGFAIKQSIENERMKRMLEERQFPEEYTKNLFNITETSPNIDINSEYTAFPVENRDLFKTGLTTIVPINGGGERLGTLILSRLDREFDNDDLILAEYGATVVGMEILREKAEEIEEEARSKAVVQMAISSLSYSELEAIEHIFEELDGTEGLLVASKIADRVGITRSVIVNALRKLESAGVIESRSLGMKGTYIKVLNDKFLSELEKLKSS”, the “soluble on expression in E. coli” value is reported as “not soluble”.
Take “MGHDLADIKKSFEASLPGYVEKKDPKSILPQPGKRNILITAALPYVNNVPHLGNIIGCVLSADVFARYCNLRGHQTFYVGGTDEYGTATETKALQEGCTPRELCDKYHAIHKGIYEWFGIDFSHFGRTTTDHQTEICQDMFLKLHKNGYTSSQSVDQLYCNQCEKFLADRFVTGTCPMCAYDDARGDQCDGCGKLINAVDLKDAKCHMCKATPEVKQSTHIFLSLDKLQQKTTEHLDRELAKEDNRWSSNAVGITKAWMKLGLDPRCITRDLKWGTAVPLDGFEKKVFYVWFDAPIGYLSITKCVLGDNWTKWWKNPENVELFNFVGKDNVAFHAVMFPCSQLGANDNYTVVNNLCATEYLNYEDTKFSKSRGTGIFGDAAQGTEIPADIWRFYLLYMRPESQDTAFSWDDFVLKVNSELLNNLGNFINRALSFVANSFGGVVPEMNLTNDDAEVLSEIHNECMQWDKQFDGVHLKDAVKTILNVSRLGNQYMQAQTPWVLMKKDEEGKKRAGTIIGVAANIAYHVSVLLYPIMPTISATIREQCGLPALPLFTPFPICYLKAGHKIGQPSPLFQKLDPAQIAEFKAKFGGSQDAQSSAPKTAEKPKQQKKQAPTKDKKGDKKMASTAAFVELEQGAKVISQLIAQNLKKFDQAKALFTRNQLQRLDGENKQLTIDVKTLQHQLIELETAAGIKQVPKPVVSCTPTPTSTPASGIITEAPKKEAPSTPAPSEPKKAKEQKKGKGGAAAAPVDDTIDVGRLDMRVGRIIKCEKHPDADALYVEQIDVGESAPRTVVSGLVRHVPLDQMQNRLVVVLCNLKPAKMRGVESRAMVMCASSPDKVEIMEVPADSKPGTPVVCPPYTHRPDEQLNPKKKIWETVAEDLKVSAEGFAEWKGQPLLIGSESKMTAPTLRGVHVK”: the “soluble on expression in E. coli” value is on record as “not soluble”.
As to “MSLNSATHLAAHEGSARRRQALGEFVRTARARITPQMAGLPAGSRRRTPGLRREEVAQLSDISVTWYTWIEQGREVTVSPAVWARIANVLHLARAERAYLFELAECADPQQPRDEGGDAPVSLQACVDAIDAPAYALDRAWNLLASNAAMRELFDDWPLRDAQPNLLRYIFLDPAARELVVDWDQRARRVVAEFRADAGAHLDEADVVALLDELNRASPVFAHWWTRHAVVEREGGLREFQHPRSGRQNLQQITFRLATHPELKLVMLLPSEGHHHHHH”, the “soluble on expression in E. coli” value was “soluble”.
The entry for “MTEALELGDCLLSGAVGLVVKRRSGIAEDVARLVVKELVESGVEVLVDETVDYPSLSGFPRFSISRDPPGRVVVVGGDGTLLRTFLRLGERESPLFMTIKAGKKGFLLDVERYEAVERLRDFLEGRFREVVYPRYRVYLEGEARACMFNDTAVTANNAKMARVHVFVDGDLAMNIDGDGVVVSTTAGSTAYSLSGGGPIIDPRLDVIVLTPLNPVQLFLRSIVVPSGSRVTVEASVYSNPLVVNIDGQYVYELEPGGIVDIERCGSGVRIARFRWWEDYYERLYTRLLAYWAAALEHHHHHH” is “not soluble”; for “MRATTIEEPARQVPLYGEYEVVVLGGGPAGIIAAASAARAGRKTLLIERYGFLGGMGTAAGVTNFCGLHGNVYGQAHRLVQGLASELLARIDLLNGLNTPHLILGKVFAQAYDTAAYKIAADELLASHKVNILFHALGAGVVMGDNSRIDALMVETKAGRQAVRSEIFIDCSGDGDLAVWAGAPFEVGDEHGHPLYPSMMLRLNNIDPEKAGEAWRTIPQLMEKALAAGTHKFPRKSAIVRPQKSGIEWRVNFTQVAREDGHAINGIEPDDLTRGEIEGRRQALAAFEFLRTVPGFEKSYIVDLPPQLGIRETRRIKGGYQLSGEDVLGCASFEDSIGVNGWPIEAHVPGDVIFTFPPIPESRGYNELPYRMLVPEGVDNLLVAGRCASMTHEGQSAARVSGACFVMGEAAGSAAALALSGNRIPRDIPIEKLQETLKQQGAFIGRDQPVPEGLLEHHHHHH” it is “not soluble”; for “MAHHHHHHMQTHISRAVEEGRHTKEAAAYFESIMNDKPEFRLFMREAQRLIGDQDPRGLTRYQQTHYSEKLSRYMSGVASERLMRAHTEDENTRRHTHDGSPTGENYWFEAGQILASPTVPSFVKDEVLREMRGGRKEDSPAFEEPKAVAEMEADDEGFAEHLRRQRKRLLSPDDHLN” it is “soluble”.
The same measure for “ERNKVESTLLDKVLFLETLVDTIPAPVFYKDREGIYRGCNDLFAKMILGIPKEKVAGCSIDEFLEKIPQELGNVYKRTDRQLLQRGGSLIYESRIMCSDGLLRQFLINKAAYRNLNGDMEGLVGVMLDIT”: “not soluble”; for “MSLSGKKVIYFIPIVDTGAYWSPMKKAAEDEAKALGYDLVVKTSPPNETQKNEKHIGFLDEAIKNKAAGIAIAPMDPDMFDKKVKEANDKGIPVVTFDADVKTKENRTSYIGTDNKLAGEQLGENGAKALKEKGITKGKIAMAAVNLTQTTMTYRQDGIKSGFEKVMGADAKNFEWLEPIQDNDQSAESKRQLEGQITSNSDMVAVFSLGSEGPDTGVMEAIKSQGKSGSIYHFGFDYTPTWENGVSSNLISGIVDQDSYAIGKTIIDTLDKKIKGEKVDDVYPVPVKWVTPDKIVEYGKEKQKQFTTELKGIITITTDPNSSSVDKLAAALEHHHHHH”: “soluble”.

(Values after the DeepSol protein solubility set.)
